Measured values reported in patent US20190248848A1 (published 2019).

Tests used:
[1] = target: T1, biotinylated histone H3 peptide trimethylated at lysine 27, H3K27me3 (21-44) (UniProt P68431 22-45, trimethyl-lysine at K27; biotinylated); experiment: peptide microspot array; apparent Kd; 10 uM H3K27me3; replicate 1
[2] = target: T1, biotinylated histone H3 peptide …; experiment: peptide microspot array; apparent Kd; 50 uM H3K27me3; replicate 2
[3] = target: T1, biotinylated histone H3 peptide …; experiment: peptide microspot array; apparent Kd; 10 uM H3K27me3; replicate 2
[4] = target: T1, biotinylated histone H3 peptide …; experiment: peptide microspot array; apparent Kd; 20 uM H3K27me3; replicate 3
[5] = target: T1, biotinylated histone H3 peptide …; experiment: peptide microspot array; apparent Kd; 10 uM H3K27me3; replicate 3
[6] = target: T1, biotinylated histone H3 peptide …; experiment: peptide microspot array; apparent Kd; 50 uM H3K27me3; replicate 1
[7] = target: T1, biotinylated histone H3 peptide …; experiment: peptide microspot array; apparent Kd; 20 uM H3K27me3; replicate 2

B1: PcTF, monovalent Polycomb-based transcription factor (pET28 construct, purified from E. coli) (designed binder)
chain: MELSAVGERVFAAEALLKRRIRKGRMEYLVKWKGWSQKYSTWEPEENILDARLLAAFEERER
- Kd [1]: 1.54 µM
- Kd [2]: 7.73 µM
- Kd [3]: 1.55 µM
- Kd [4]: 6.45 µM
- Kd [5]: 7.6 µM
- Kd [6]: 3.5 µM
- Kd [7]: 5.66 µM
